Measurements: patent publication US20230121197A1, “ANTIBODIES SPECIFICALLY BINDING THE CARBOXYMETHYLATED CATALYTIC SUBUNIT OF PROTEIN PHOSPHATASE 2A” (Medizinische Universität Wien, priority 2020, published 2023)

Key:
[1] = target: PP2Ac C-terminal peptide pY307-meL309, ac-HVTRRTPDpYFL-CH3 (human); test: ELISA, 4-fold dilution series of coated peptide, hybridoma supernatant 1:50, normalized
[2] = target: T1, PP2Ac C-terminal peptide meL309, ac-HVTRRTPDYFL-CH3 (α-carboxymethylated) (human, SMILES …); test: SPR, ratio of steady-state KD values
T1 construct: also called Y307-meL309; mePP2Ac
T1 peptide: Ac-HVTRRTPDYFL-OMe
Excerpt: (A) Saturation curve of the titration of the α-carboxymethylated PP2Ac C-terminal peptide (SEQ ID NO:18) on 7C10-C5 or 2A10 immobilized on a Series S Sensor Chip CM5 (GE Healthcare, 10296958). […] (B) Saturation curve of the titration of the α-carboxymethylated PP4c C-terminal peptide (SEQ ID NO:20) on 7C10-C5 or 2A10 immobilized on a Series S Sensor Chip CM5 (GE Healthcare, 10296958). […] The KD values were obtained using the fitting tool of the BiacoreT200 Evaluation Software (version 3.1).
The differential affinity of anti-carboxymethylated PP2Ac antibodies, 7C10-C5 and 2A10, to carboxymethylated PP2A catalytic subunit versus noncarboxymethylated PP2A catalytic subunit was determined by surface plasmon resonance (SPR) on a Biacore T200 (GE Healthcare) at the Core Facility Biomolecular & Cellular Analysis (University of Natural Resources and Life Sciences Vienna BOKU). The affinity of 7C10-C5 for carboxymethylated and noncarboxymethylated catalytic subunit of PP4 (PP4c), a PP2A-related phosphatase, was also determined.

[3] = target: T1, PP2Ac C-terminal peptide meL309, …; test: ELISA, peptide coated at 2 µg/ml, supernatant 1:50
Description: Nunc Medisorp 96-well ELISA flat-bottom plates were coated with peptides L309 (ac-[…]) (SEQ ID NO:18), meL309 (ac-[…]-CH₃) (SEQ ID NO:18) or amL309 (ac-[…]-NH₂) (SEQ ID NO:18) at 2 μg/ml in TBS at 4° C. over-night. After washing once with TBS, the wells were incubated with 2% BSA in TBS for 1 h at RT. After washing once with TBS, the wells were incubated with single clone hybridoma cell culture supernatant clone 7C10-C5 1:50 (˜1 μg/ml) in 1% BSA/TBS for 1 h at RT. After washing twice with TBS, wells were incubated with anti-mouse HRP-coupled secondary antibody for 1 h at RT, followed by washing 3× in PBS. Bound antibodies were detected by colorimetric reaction with 3,3′,5,5′-Tetramethylbenzidine as substrate, and absorbance was measured at 450 nm. Values were normalized to meL309 which was set to 1. Average and standard deviation of N=8 experiments are shown. Statistical significance was assessed using ANOVA followed by Tukey's HSD as a post-hoc test. P values are indicated with *, **, ***, which correspond to values of <0.05, <0.01, and <0.001.
Specifically, flat-bottom Nunc-Immuno Medisorp 96-well ELISA plates (Thermo; 467320) were coated o/n at 4° C. with 50 μl of either a peptide of the sequence ac-[…]-OH (L309; unmodified) (SEQ ID NO:18) at a concentration of 2 μg/ml, a peptide of the sequence ac-[…]-CH₃ (meL309; methylated) (SEQ ID NO:18) at a concentration of 2 μg/ml in TBS (137 mM NaCl (AppliChem, #131659, 2.7 mM KCl (AppliChem, #131494), 24.8 mM Tris (AppliChem, #A1086), pH 7.4 with HCl) or a peptide of the sequence ac-[…]-NH₂ (amL309; amidated) (SEQ ID NO:18) at a concentration of 2 μg/ml in TBS. Of note, the “ac-” in the peptides described here and in other Examples refers to an acetylated N-terminus. Said acetylation neutralizes the positive charge at the N-terminus, and the free charged N-terminus is thereby removed.

B1: 7C10-C5 monoclonal antibody (antibody, V domains shown)
VH: DVQLQESGPGLVKPSQSLSLTCSVTGYSITSGYYWNWIRQFPGNKLEWMGYISYDGSNNYNPSLKNRISITRDTSKNQFFLKLNSVTTEDTATYYCAGRFAYWGQGTLVTVSA
VL: DVLMTQTPLSLPVSLGDQASISCRSSQSIVHSNGNTYLEWYLQKPGQSPKLLIYKVSNRFSGVPDRFSGSGSGTDFTLKINRVEAEDLGVYYCFQGSHVPWTFGGGTKLEIK
notes: Used as hybridoma culture supernatant (ELISA, Western blot, IHC) or at 50 µg/mL (SPR); also called 7C10 X63; clone 7C10-C5
- EC50 (read off the curve) [1]: 0.3 µg/mL
- fold stronger binding than to carboxymethylated PP4c (ratio of KD) [2]: 12 fold
- fold higher ELISA signal intensity than with the amidated peptide (amL309) [3]: 6 fold
- fold higher ELISA signal intensity than with the non-methylated peptide (L309) [3]: 26 fold
- fold higher ELISA signal intensity than with the α-carboxymethylated PP4c peptide (meL307) [3]: ≥ 10 fold
